Some targets named below: FcRn (human) (UniProt P55899); FcγRIIb/c (human) (UniProt P31994); FcγRIIIb (human) (UniProt O75015); FcγRIa (human) (UniProt P12314); FcγRIIIa (F) (human) (UniProt P08637); FcγRIIIa (V) (human) (UniProt P08637).
Holding throughout (assay): SPR
On the technique in general: In SPR one partner is held on a chip, and binding of the other changes the refractive index at the surface.

Chain of UniProt P55899 (P55899 24-365, chain 1 of 2): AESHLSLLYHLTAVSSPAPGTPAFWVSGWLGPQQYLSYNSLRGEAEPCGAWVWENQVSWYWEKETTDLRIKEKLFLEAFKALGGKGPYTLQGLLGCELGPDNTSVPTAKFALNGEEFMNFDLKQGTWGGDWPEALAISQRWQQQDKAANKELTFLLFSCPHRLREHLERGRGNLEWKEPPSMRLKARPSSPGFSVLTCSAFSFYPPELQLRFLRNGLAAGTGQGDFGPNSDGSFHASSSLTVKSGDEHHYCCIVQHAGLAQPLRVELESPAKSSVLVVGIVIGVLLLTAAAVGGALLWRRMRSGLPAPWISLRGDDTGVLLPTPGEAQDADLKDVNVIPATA
Chain of UniProt P55899 (P61769 21-119, chain 2 of 2, further chain): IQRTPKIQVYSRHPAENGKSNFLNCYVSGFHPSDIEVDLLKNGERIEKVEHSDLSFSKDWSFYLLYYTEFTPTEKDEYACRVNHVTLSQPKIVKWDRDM
Chain of UniProt P12314 (P12314 16-374): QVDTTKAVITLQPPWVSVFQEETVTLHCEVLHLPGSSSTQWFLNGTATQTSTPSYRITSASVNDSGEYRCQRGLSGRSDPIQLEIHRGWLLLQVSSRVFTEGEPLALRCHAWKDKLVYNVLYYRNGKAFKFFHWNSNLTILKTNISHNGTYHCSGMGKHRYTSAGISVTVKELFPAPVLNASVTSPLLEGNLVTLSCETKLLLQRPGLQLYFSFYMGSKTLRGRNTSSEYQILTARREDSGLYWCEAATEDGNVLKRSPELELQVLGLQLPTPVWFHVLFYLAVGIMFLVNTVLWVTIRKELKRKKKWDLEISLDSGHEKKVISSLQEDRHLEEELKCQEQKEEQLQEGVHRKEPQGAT
Chain of UniProt P31994 (P31994 43-310): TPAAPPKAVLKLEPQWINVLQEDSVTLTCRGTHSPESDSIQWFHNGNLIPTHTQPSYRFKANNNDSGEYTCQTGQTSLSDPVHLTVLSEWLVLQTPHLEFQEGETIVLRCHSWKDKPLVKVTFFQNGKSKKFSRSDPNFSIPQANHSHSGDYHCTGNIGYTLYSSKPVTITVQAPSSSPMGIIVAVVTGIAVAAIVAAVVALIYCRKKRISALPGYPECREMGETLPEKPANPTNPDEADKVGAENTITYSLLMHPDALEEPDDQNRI
Chain of UniProt O75015 (O75015 17-200): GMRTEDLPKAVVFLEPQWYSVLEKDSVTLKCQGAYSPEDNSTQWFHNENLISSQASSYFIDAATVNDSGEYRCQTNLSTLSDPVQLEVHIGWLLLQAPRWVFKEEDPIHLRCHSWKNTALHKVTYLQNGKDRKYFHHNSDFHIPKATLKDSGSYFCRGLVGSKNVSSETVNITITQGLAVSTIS

Turning to “CN-rituximab (MabThera, sourced in China but manufactured in Europe) (antibody)”, the relative binding activity (KD ratio to a reference), mean of batches amounted to 131% in the assay with FcRn (human) and 99% with FcγRIIb/c (human).

As to “EU-rituximab (MabThera, sourced and manufactured in Europe) (antibody)”, the relative binding activity (KD ratio to a reference), mean of batches with FcRn (human) was determined as 121%; in the assay with FcγRIIIb (human) it was 90%; in the assay with FcγRIa (human) it was 118%.

Take HLX01 (antibody): the relative binding activity (KD ratio to a reference), mean of batches with FcRn (human) came to 113%; with FcγRIIIa (F) (human), 98%; with FcγRIIIa (V) (human) it was 95%; with FcγRIIb/c (human), 90%; with FcγRIa (human) it was 103%.

The values are drawn from article PMC6512903.
